Measured values published in paper PMC5367461 (Biochemical and biophysical research communications, 2017).

What was measured:
[1] = target: T1, PDZ-RhoGEF PDZ domain (residues 41-123), human (human, UniProt O15085 41-123); test: crystal structure
T1 sequence (looked up): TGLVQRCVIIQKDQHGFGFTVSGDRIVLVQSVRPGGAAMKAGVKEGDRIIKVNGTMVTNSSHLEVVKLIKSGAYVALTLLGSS

[2] = target: the molecule itself; test: SDS-PAGE with/without BME

| Binder | binding result [1] | stoichiometry N [2] |
| --- | --- | --- |
| TSTTL [CXCR2 C-terminal PDZ binding motif TSTTL (residues 356-360 of human CXCR2)] | binds |  |
| rPDZ-CXCR2 fusion protein: human PDZ-RhoGEF PDZ (residues 41-123) with the C-terminal extension TSTTL of human CXCR2 (other) TGLVQRCVIIQKDQHGFGFTVSGDRIVLVQSVRPGGAAMKAGVKEGDRIIKVNGTMVTNSSHLEVVKLIKSGAYVALTLLGSSTSTTL |  | 2 |
